# Numbered stars: 1 amine (or outer) side, 2 acyl side, 3 side chain; on linkers, the order of the positions; unused ones are H or OH. Bridge positions count the residues as written; N and C are the ends. Side chains are listed from the residue outwards. Ends that are not written are not given here. * marks the point of attachment. C20 diacid = O=C(O)CCCCCCCCCCCCCCCCCCC(=O)*; γGlu = O=C(O)[C@H](CCC(=O)[*:2])N[*:1]; AEEA = NCCOCCOCC(=O)O
# T1: human calcitonin receptor (human, UniProt P30988 25-474)
# T1 construct: whole, on cells; also called hCTR; hCT
# T1 sequence (looked up): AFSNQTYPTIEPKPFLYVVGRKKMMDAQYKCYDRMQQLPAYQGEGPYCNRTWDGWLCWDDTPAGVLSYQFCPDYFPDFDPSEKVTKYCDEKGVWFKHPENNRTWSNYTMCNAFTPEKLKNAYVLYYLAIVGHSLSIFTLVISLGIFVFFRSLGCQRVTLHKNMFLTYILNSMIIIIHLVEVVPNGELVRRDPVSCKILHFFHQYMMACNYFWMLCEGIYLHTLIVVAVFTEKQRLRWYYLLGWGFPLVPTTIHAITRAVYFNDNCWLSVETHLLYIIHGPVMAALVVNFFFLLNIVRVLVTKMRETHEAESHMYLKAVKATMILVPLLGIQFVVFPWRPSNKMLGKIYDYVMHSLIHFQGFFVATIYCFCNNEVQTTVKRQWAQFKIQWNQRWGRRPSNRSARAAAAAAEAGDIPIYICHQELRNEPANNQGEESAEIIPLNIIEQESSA
# B1: N^ε1-[2-[2-[2-[[(4S)-4-carboxy-4-(19-carboxynonadecanoylamino)butanoyl]amino]ethoxy]ethoxy]acetyl]-[Arg14,Arg17,Pro21,Pro27]-h-amylin (peptide)
# peptide: K([AEEA-γGlu-C20 diacid])CNTATCATQRLARFLRHSSPNFGAIPSSTNVGSNTY-NH2
# modifications: disulfide 2-7; N-terminus assumed
# SMILES: CC[C@H](C)[C@H](NC(=O)[C@H](C)NC(=O)CNC(=O)[C@H](Cc1ccccc1)NC(=O)[C@H](CC(N)=O)NC(=O)[C@@H]1CCCN1C(=O)[C@H](CO)NC(=O)[C@H](CO)NC(=O)[C@H](Cc1c[nH]cn1)NC(=O)[C@H](CCCNC(=N)N)NC(=O)[C@H](CC(C)C)NC(=O)[C@H](Cc1ccccc1)NC(=O)[C@H](CCCNC(=N)N)NC(=O)[C@H](C)NC(=O)[C@H](CC(C)C)NC(=O)[C@H](CCCNC(=N)N)NC(=O)[C@H](CCC(N)=O)NC(=O)[C@@H](NC(=O)[C@H](C)NC(=O)[C@@H]1CSSC[C@H](NC(=O)[C@@H](N)CCCCNC(=O)COCCOCCNC(=O)CC[C@H](NC(=O)CCCCCCCCCCCCCCCCCCC(=O)O)C(=O)O)C(=O)N[C@@H](CC(N)=O)C(=O)N[C@@H]([C@@H](C)O)C(=O)N[C@@H](C)C(=O)N[C@@H]([C@@H](C)O)C(=O)N1)[C@@H](C)O)C(=O)N1CCC[C@H]1C(=O)N[C@@H](CO)C(=O)N[C@@H](CO)C(=O)N[C@H](C(=O)N[C@@H](CC(N)=O)C(=O)N[C@H](C(=O)NCC(=O)N[C@@H](CO)C(=O)N[C@@H](CC(N)=O)C(=O)N[C@H](C(=O)N[C@@H](Cc1ccc(O)cc1)C(N)=O)[C@@H](C)O)C(C)C)[C@@H](C)O
# notes: also called compound 82
# B2: N^ε1-[2-[2-[2-[[(4S)-4-carboxy-4-(19-carboxynonadecanoylamino)butanoyl]amino]ethoxy]ethoxy]acetyl]-[His14,Arg17,Pro21,Pro27,Arg34]-h-amylin (peptide)
# peptide: K([AEEA-γGlu-C20 diacid])CNTATCATQRLAHFLRHSSPNFGAIPSSTNVGRNTY-NH2
# modifications: disulfide 2-7; N-terminus assumed
# SMILES: CC[C@H](C)[C@H](NC(=O)[C@H](C)NC(=O)CNC(=O)[C@H](Cc1ccccc1)NC(=O)[C@H](CC(N)=O)NC(=O)[C@@H]1CCCN1C(=O)[C@H](CO)NC(=O)[C@H](CO)NC(=O)[C@H](Cc1c[nH]cn1)NC(=O)[C@H](CCCNC(=N)N)NC(=O)[C@H](CC(C)C)NC(=O)[C@H](Cc1ccccc1)NC(=O)[C@H](Cc1c[nH]cn1)NC(=O)[C@H](C)NC(=O)[C@H](CC(C)C)NC(=O)[C@H](CCCNC(=N)N)NC(=O)[C@H](CCC(N)=O)NC(=O)[C@@H](NC(=O)[C@H](C)NC(=O)[C@@H]1CSSC[C@H](NC(=O)[C@@H](N)CCCCNC(=O)COCCOCCNC(=O)CC[C@H](NC(=O)CCCCCCCCCCCCCCCCCCC(=O)O)C(=O)O)C(=O)N[C@@H](CC(N)=O)C(=O)N[C@@H]([C@@H](C)O)C(=O)N[C@@H](C)C(=O)N[C@@H]([C@@H](C)O)C(=O)N1)[C@@H](C)O)C(=O)N1CCC[C@H]1C(=O)N[C@@H](CO)C(=O)N[C@@H](CO)C(=O)N[C@H](C(=O)N[C@@H](CC(N)=O)C(=O)N[C@H](C(=O)NCC(=O)N[C@@H](CCCNC(=N)N)C(=O)N[C@@H](CC(N)=O)C(=O)N[C@H](C(=O)N[C@@H](Cc1ccc(O)cc1)C(N)=O)[C@@H](C)O)C(C)C)[C@@H](C)O
# notes: also called compound 84
# B3: N^ε1-[2-[2-[2-[[(4S)-4-carboxy-4-(19-carboxynonadecanoylamino)butanoyl]amino]ethoxy]ethoxy]acetyl]-[Gly14,Arg17,Pro21,Pro27,Pro31]-h-amylin (peptide)
# peptide: K([AEEA-γGlu-C20 diacid])CNTATCATQRLAGFLRHSSPNFGAIPSSTPVGSNTY-NH2
# modifications: disulfide 2-7; N-terminus assumed
# SMILES: CC[C@H](C)[C@H](NC(=O)[C@H](C)NC(=O)CNC(=O)[C@H](Cc1ccccc1)NC(=O)[C@H](CC(N)=O)NC(=O)[C@@H]1CCCN1C(=O)[C@H](CO)NC(=O)[C@H](CO)NC(=O)[C@H](Cc1c[nH]cn1)NC(=O)[C@H](CCCNC(=N)N)NC(=O)[C@H](CC(C)C)NC(=O)[C@H](Cc1ccccc1)NC(=O)CNC(=O)[C@H](C)NC(=O)[C@H](CC(C)C)NC(=O)[C@H](CCCNC(=N)N)NC(=O)[C@H](CCC(N)=O)NC(=O)[C@@H](NC(=O)[C@H](C)NC(=O)[C@@H]1CSSC[C@H](NC(=O)[C@@H](N)CCCCNC(=O)COCCOCCNC(=O)CC[C@H](NC(=O)CCCCCCCCCCCCCCCCCCC(=O)O)C(=O)O)C(=O)N[C@@H](CC(N)=O)C(=O)N[C@@H]([C@@H](C)O)C(=O)N[C@@H](C)C(=O)N[C@@H]([C@@H](C)O)C(=O)N1)[C@@H](C)O)C(=O)N1CCC[C@H]1C(=O)N[C@@H](CO)C(=O)N[C@@H](CO)C(=O)N[C@H](C(=O)N1CCC[C@H]1C(=O)N[C@H](C(=O)NCC(=O)N[C@@H](CO)C(=O)N[C@@H](CC(N)=O)C(=O)N[C@H](C(=O)N[C@@H](Cc1ccc(O)cc1)C(N)=O)[C@@H](C)O)C(C)C)[C@@H](C)O
# notes: also called compound 71
# B4: N^ε1-[2-[2-[2-[[(4S)-4-carboxy-4-(19-carboxynonadecanoylamino)butanoyl]amino]ethoxy]ethoxy]acetyl]-[Arg17,Pro21,Pro27,Arg34]-h-amylin (peptide)
# peptide: K([AEEA-γGlu-C20 diacid])CNTATCATQRLANFLRHSSPNFGAIPSSTNVGRNTY-NH2
# modifications: disulfide 2-7; N-terminus assumed
# SMILES: CC[C@H](C)[C@H](NC(=O)[C@H](C)NC(=O)CNC(=O)[C@H](Cc1ccccc1)NC(=O)[C@H](CC(N)=O)NC(=O)[C@@H]1CCCN1C(=O)[C@H](CO)NC(=O)[C@H](CO)NC(=O)[C@H](Cc1c[nH]cn1)NC(=O)[C@H](CCCNC(=N)N)NC(=O)[C@H](CC(C)C)NC(=O)[C@H](Cc1ccccc1)NC(=O)[C@H](CC(N)=O)NC(=O)[C@H](C)NC(=O)[C@H](CC(C)C)NC(=O)[C@H](CCCNC(=N)N)NC(=O)[C@H](CCC(N)=O)NC(=O)[C@@H](NC(=O)[C@H](C)NC(=O)[C@@H]1CSSC[C@H](NC(=O)[C@@H](N)CCCCNC(=O)COCCOCCNC(=O)CC[C@H](NC(=O)CCCCCCCCCCCCCCCCCCC(=O)O)C(=O)O)C(=O)N[C@@H](CC(N)=O)C(=O)N[C@@H]([C@@H](C)O)C(=O)N[C@@H](C)C(=O)N[C@@H]([C@@H](C)O)C(=O)N1)[C@@H](C)O)C(=O)N1CCC[C@H]1C(=O)N[C@@H](CO)C(=O)N[C@@H](CO)C(=O)N[C@H](C(=O)N[C@@H](CC(N)=O)C(=O)N[C@H](C(=O)NCC(=O)N[C@@H](CCCNC(=N)N)C(=O)N[C@@H](CC(N)=O)C(=O)N[C@H](C(=O)N[C@@H](Cc1ccc(O)cc1)C(N)=O)[C@@H](C)O)C(C)C)[C@@H](C)O
# notes: also called compound 78
# Biological target: T1, human calcitonin receptor
# Test: SPA radioligand competition (125I-calcitonin), membranes of BHK cells with human calcitonin receptor
# Procedure: Membranes were prepared in the following way; the cells were rinsed with PBS and incubated with Versene for approximately 5 min before harvesting. The cells were flushed with PBS and the cell-suspension was centrifuged for 5 min at 1000 rpm. Cells were homogenized (Ultrathurrax) in a buffer containing 20 mM Na-HEPES and 10 mM EDTA (pH 7.4) and centrifuged at 20.000 rpm for 15 min. The resulting pellet was resuspended, homogenized and centrifuged (20.000 rpm, 15 min) in a buffer containing 20 mM Na-HEPES and 0.1 mM EDTA (pH 7.4, buffer 2). The resulting pellet was resuspended in buffer 2 and protein concentration was measured (BCA protein Assay, Pierce). The homogenate was kept cold during the whole procedure. The membranes were kept at −80° C. until use. Assay was performed in a 384 well Optiplate (PerkinElmer) in a total volume of 40 ul. Membranes were mixed with SPA beads. Final concentration of membranes 35 ng/μL final and Final concentration of SPA beads was 0.05 mg/well. Test-compounds were dissolved in DMSO and further diluted in assay buffer (50 mM Hepes, pH 7.4, 1 mM CaCl2, 5 mM MgCl₂, 0.1% OA and 0.02% Tween20). […] The final mixture was incubated for 120 min with shaking at 400 rpm at 25° C. prior to centrifugation (1500 rpm, 10 min). Samples were analyzed on TopCounter™ (Packard). The […] was calculated using (one site binding competition analysis) GraphPad Prism5 as a measure of receptor affinity.
row,IC50,Binder
1,88.8 nM,B1
2,88.9 nM,B2
3,1.53 nM,B3
4,36.5 nM,B4

# Biological target: T1, human calcitonin receptor
# Test: ratio of IC50 at human calcitonin receptor to IC50 at human amylin receptor (SPA competition assays)
# Procedure: The resulting pellet was resuspended, homogenized and centrifuged (20.000 rpm, 15 min) in a buffer containing 20 mM Na-HEPES and 0.1 mM EDTA (pH 7.4, buffer 2). The resulting pellet was resuspended in buffer 2 and protein concentration was measured (BCA protein Assay, Pierce). The homogenate was kept cold during the whole procedure. The membranes were kept at −80° C. until use. The assay was performed in a 384 well Optiplate (PerkinElmer) in a total volume of 40 ul. Membranes were mixed with SPA beads. Final concentration of membranes 35 ng/μL final and SPA beads was 0.05 mg/well. Test-compounds were dissolved in DMSO and further diluted in assay buffer (50 mM Hepes, pH 7.4, 1 mM CaCl2, 5 mM MgCl₂, 0.1% OA and 0.02% Tween20). […] The final mixture was incubated with shaking at 400 rpm for 120 min at 25° C. prior to centrifugation (1500 rpm, 10 min). Samples were analyzed on TopCounter™ (Packard). The IC₅₀ was calculated using (one site binding competition analysis) GraphPad Prism5 as a measure of receptor affinity.
# Membranes were prepared in the following way; the cells were rinsed with PBS and incubated with Versene for approximately 5 min before harvesting. The cells were flushed with PBS and the cell-suspension was centrifuged for 5 min at 1000 rpm. Cells were homogenized (Ultrathurrax) in a buffer containing 20 mM Na-HEPES and 10 mM EDTA (pH 7.4) and centrifuged at 20.000 rpm for 15 min. The resulting pellet was resuspended, homogenized and centrifuged (20.000 rpm, 15 min) in a buffer containing 20 mM Na-HEPES and 0.1 mM EDTA (pH 7.4, buffer 2). The resulting pellet was resuspended in buffer 2 and protein concentration was measured (BCA protein Assay, Pierce). The homogenate was kept cold during the whole procedure. The membranes were kept at −80° C. until use. Assay was performed in a 384 well Optiplate (PerkinElmer) in a total volume of 40 ul. Membranes were mixed with SPA beads.
row,Ratio hCT/hAmylin binding,Binder
1,140,B1
2,120,B2
3,32,B3
4,60.7,B4

# — patent US20140087995A1 (published 2014)
